What was measured:
[1] = molecular target: human mitochondrial ferredoxin 2 (FDX2), holo form with [2Fe-2S] cluster (H. sapiens) (UniProt Q6P4F2); test: ITC
[2] = molecular target: human mitochondrial ferredoxin 1 (FDX1), holo form with [2Fe-2S] cluster (H. sapiens); test: ITC

Sequence of human mitochondrial ferredoxin 2 (FDX2), holo form with [2Fe-2S] cluster (H. sapiens) (Q6P4F2 53-183): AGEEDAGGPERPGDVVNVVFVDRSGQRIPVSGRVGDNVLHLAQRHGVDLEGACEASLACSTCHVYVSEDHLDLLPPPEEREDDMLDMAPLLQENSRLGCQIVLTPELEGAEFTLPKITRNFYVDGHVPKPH
Sequence of [Acp]2:[ISD11]2:[NFS1]2 complex (cysteine desulfurase complex) (Q9Y697 53-457): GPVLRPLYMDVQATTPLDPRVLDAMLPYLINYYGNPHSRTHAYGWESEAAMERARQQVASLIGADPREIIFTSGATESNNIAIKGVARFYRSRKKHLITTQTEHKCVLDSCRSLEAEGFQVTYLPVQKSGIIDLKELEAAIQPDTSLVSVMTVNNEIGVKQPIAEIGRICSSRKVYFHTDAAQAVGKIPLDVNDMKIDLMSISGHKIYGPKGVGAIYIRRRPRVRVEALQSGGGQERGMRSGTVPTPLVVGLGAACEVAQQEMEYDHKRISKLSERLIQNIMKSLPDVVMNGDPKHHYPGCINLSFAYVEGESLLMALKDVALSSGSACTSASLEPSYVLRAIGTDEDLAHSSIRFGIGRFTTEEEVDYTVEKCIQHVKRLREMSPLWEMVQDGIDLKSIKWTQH
Sequence of [Acp]2:[ISD11]2:[NFS1]2 complex (cysteine desulfurase complex) (Q9HD34 whole entry): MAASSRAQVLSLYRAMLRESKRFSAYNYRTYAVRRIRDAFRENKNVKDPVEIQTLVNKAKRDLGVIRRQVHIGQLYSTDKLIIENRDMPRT
Sequence of [Acp]2:[ISD11]2:[NFS1]2 complex (cysteine desulfurase complex) (P0A6A8 2-78): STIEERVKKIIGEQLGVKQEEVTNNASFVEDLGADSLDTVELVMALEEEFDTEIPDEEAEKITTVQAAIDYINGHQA

Kd [1]: 14.9 µM
Kd [2]: 41.7 µM
Substance: [Acp]2:[ISD11]2:[NFS1]2 complex (cysteine desulfurase complex) (from UniProt Q9Y697 53-457; Q9HD34 1-91; P0A6A8 2-78)

Reference: paper PMC5267338
